Experimental data published in US7442375B2, “Compositions of beta-defensin inducing agents” (Case Western Reserve University, priority 2002, dated 2008).

Legend:
CXCR4 = CXCR4 (Homo sapiens, UniProt P61073); test: Confocal microscopy of co-receptor surface expression on CEM X4/R5 cells; format: cell-based; set-up: endogenous in cells; settings: 20 μg/ml, 3 h
Protocol: (§1) CEM X4/R5 cells were grown in RPMI-1640 medium containing 5% FBS and 400 μg/ml G418. Cells were collected, washed twice with PBS, resuspended in RPMI with 0.5% FBS or supplemented with 20 μg/ml recombinant hBD-2 or -3, and incubated at 37° C., 5% CO2 for 3 h. A second aliquot of cells, after incubation with hBD, was treated with FACS/Perm (PharMingen) at room temperature for 10 min and then washed three times with PBS. A third aliquot of cells was fixed in 1% paraformaldehyde on ice for 30 min, washed three times with PBS, and then incubated with 20 μg/ml hBD-2 or -3. Cells were stained with PE-labeled CXCR4 or CCR5 (PharMingen), or with primary goat anti-hBD-2 antibodies (Cell Sciences, Norwood, Mass., USA), or with rabbit anti-hBD-3 antibodies (Orbingen, San Diego, Calif., USA) at room temperature for 90 min, followed by washing three times with PBS. Fluorescein isothiocyanate-labeled rabbit anti-goat IgG (Jackson ImmunoResearch, West Grove, Pa., USA) for detection of hBD-2, or goat anti-rabbit IgG (Sigma) for detection of hBD-3, were added, respectively, at room temperature and incubated for 90 min. […] All samples were observed using a dual scanning confocal microscope system (Zeiss LSM 510, Oberkochem, Germany) and analyzed with the Zeiss LSM 5 Image Browser. […]

CCR5 = CCR5 (Homo sapiens, UniProt P51681); test: as above; format: cell-based; set-up: endogenous in cells; settings: 20 μg/ml, 3 h
CCR5, sequence (P51681 whole entry): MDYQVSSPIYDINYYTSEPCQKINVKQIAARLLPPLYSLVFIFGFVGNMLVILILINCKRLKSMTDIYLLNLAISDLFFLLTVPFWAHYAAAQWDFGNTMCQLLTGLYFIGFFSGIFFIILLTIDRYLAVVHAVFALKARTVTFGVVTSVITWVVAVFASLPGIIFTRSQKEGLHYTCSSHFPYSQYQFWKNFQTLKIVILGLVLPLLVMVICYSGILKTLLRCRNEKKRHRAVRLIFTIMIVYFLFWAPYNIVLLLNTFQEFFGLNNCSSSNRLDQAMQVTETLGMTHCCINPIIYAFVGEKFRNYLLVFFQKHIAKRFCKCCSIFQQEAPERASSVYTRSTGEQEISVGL
Protocol: as §1

MT4 cellular membrane = test: Immunogold transmission electron microscopy; format: binding, human; settings: 20 μg/ml, 37° C., 1 h; anti-hBD antibody and 10-nm gold IgG
Protocol: (§2) (a) CXCR4 tropic HXB2 and CCR5 tropic 97ZA003 HIV-1 strains were incubated with 20 μg/ml hBD-1, -2, or -3 in 10 mM PB for 1 h. Virions were pelleted, washed extensively with PBS and used to infect GHOST X4/R5 cells. RT activity was measured 48 h post-infection. The final two columns represent an additional 20 μg/ml of hBD-2 or -3 during infection. (b) Immunoelectron microscopy analysis showing the interaction of hBD-2 and -3 with HIV-1 and with MT4 cell membrane. X4 HIV-1 HXB2 strain and MT4 cells were incubated with hBD-2 or -3 (20 μg/ml), 37° C., 1 h. Polyclonal anti-hBD-2 or -3 antibodies were added, followed by addition of secondary IgG conjugated with 10-nm gold particles. Arrows indicate hBD-2 and -3 localization to virions and cell membrane.
(§3) MT4 cells in RPMI, or X4 strain B-HXB2 viral particles in 10 mM phosphate buffer (PB), were incubated with 20 μg/ml hBD-2 and -3 at 37° C. for 1 h. Cells and virions were centrifuged (15 min, 1200 rpm for cells; 30 min, 35 000 3 g for virus) and washed twice with PBS to remove unbound hBD. Cells and virions were mixed and fixed with 4% paraformaldehyde/0.5% glutaraldehyde, dehydrated, embedded in LR WHITE resin (London Resin Company Ltd, Berkshire, UK), and labeled after embedding as described [Briquet et al.]. […]

HIV-1 R5-C-97ZA003 = test: hBD-virion interaction: virions incubated with hBD, pelleted, washed, used to infect GHOST X4/R5 cells; format: cell-based; settings: 20 μg/ml in 10 mM PB 1 h; RT activity 48 h post-infection
Protocol: as §2
(§4) In order to verify a direct hBD-virion interaction, the X4 B-HXB2 and R5-C-97ZA003 HIV-1 strains was incubated with 20 μg/ml of each hBD in 10 mM PB for 1 h, followed by pelleting and extensive washing. Virions were then used to infect GHOST X4/R5 cells. […] To further define these interactions, MT4 cells, infected with the CXCR4 tropic B-HXB2, were incubated with hBD-2 or -3 in RPMI, followed by the addition of anti-hBD-2 or -3 antibodies and goat anti-rabbit IgG conjugated with 10-nm gold particles.

HIV-1 X4 B-HXB2 = test: as above; format: cell-based
Protocol: as §2, §4

CEM X4/R5 cells = test: Confocal microscopy, localisation of hBD on CEM X4/R5 cells; format: cell-based, human; settings: live cells incubated with hBD, then anti-hBD antibodies
Protocol: as §1

HIV-1 B-HXB2 virions = test: Immunogold transmission electron microscopy; format: binding; settings: 20 μg/ml, 37° C., 1 h; anti-hBD antibody and 10-nm gold IgG
Protocol: as §2, §3

CXCR4, sequence (P61073 whole entry): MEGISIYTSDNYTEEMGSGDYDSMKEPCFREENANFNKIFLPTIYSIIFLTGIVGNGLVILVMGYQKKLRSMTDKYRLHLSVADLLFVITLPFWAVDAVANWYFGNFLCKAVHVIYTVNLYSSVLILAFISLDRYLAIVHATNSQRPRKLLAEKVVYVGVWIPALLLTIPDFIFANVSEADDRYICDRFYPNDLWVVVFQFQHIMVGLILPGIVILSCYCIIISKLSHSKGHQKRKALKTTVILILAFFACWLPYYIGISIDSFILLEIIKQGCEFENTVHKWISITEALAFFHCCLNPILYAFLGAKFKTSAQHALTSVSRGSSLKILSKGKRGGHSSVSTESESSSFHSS

B1: hBD-3: Recombinant human β-defensin 3 produced using an hBD-3-His tag fusion construct cloned into pET-30c; exemplary sequence SEQ ID NO:15 (protein, listed as Homo sapiens)
chain: MRIHYLLFALLFLFLVPVPGHGGIINTLQKYYCRVRGGRCAVLSCLPKEEQIGKCSTRGRKCCRRKK
modifications: not fully specified (C-terminus); ends and bridges not checked
surface expression of CXCR4 (CXCR4): dramatically decreased
surface expression of CCR5 (CCR5): not
gold particles bound to MT4 cellular membrane (MT4 cellular membrane): bound both to virions and to the MT4 cellular membrane
anti-HIV-1 effect after pelleting and extensive washing of virions (HIV-1 R5-C-97ZA003): maintained after washing
anti-HIV-1 effect after pelleting and extensive washing of virions (HIV-1 X4 B-HXB2; 20 μg/ml in 10 mM PB 1 h, RT activity 48 h post-infection): maintained after washing
effect of subsequent addition of hBD to the cell-virus mixture (HIV-1 X4 B-HXB2; additional 20 μg/ml during infection, enhancement only against the CXCR4-tropic strain): enhanced anti-HIV-1 activity
detection of peptide on the cell surface (CEM X4/R5 cells): failed to detect
gold particles bound to virions (HIV-1 B-HXB2 virions): bound both to virions and to the MT4 cellular membrane
